Laboratory results from the supplement of paper PMC9233669.
Variants at the floor of the assay were thinned out.

Tests used:
biotinyl-Phe-oxazolone = assay: self-aminoacylation, catalytic enhancement (BFO) (fold over background); higher = more active; k-Seq, kA / k0A0; sequences stand for … in GGGAAUGGAUCCACAUCUACGAAUUC…UUCACUGCAGACUUGACGAAGCUG
Outline: (§1)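 Mutagenized RNA pools with a 21-nt variable region (0.43 μM) were reacted with each biotinyl-aminoacyl-oxazolone at 2–1250 μM for 90 minutes at room temperature, in 50 μL HEPES/NaCl/KCl/MgCl2/CaCl2 buffer containing 5% acetonitrile at pH 6.9–7.0. RNA captured on streptavidin was quantified by triplicate qPCR and by Illumina sequencing. The fraction reacted for each sequence was fit to a pseudo-first-order model with bootstrapping, and catalytic enhancement is the median kA divided by the uncatalyzed rate, taken as the low-activity peak of a bimodal Gaussian fit.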

biotinyl-Ile-oxazolone = assay: self-aminoacylation, catalytic enhancement (BIO) (fold over background); higher = more active; k-Seq, kA / k0A0; sequences stand for … in GGGAAUGGAUCCACAUCUACGAAUUC…UUCACUGCAGACUUGACGAAGCUG
Outline: as §1

biotinyl-Met-oxazolone = assay: self-aminoacylation, catalytic enhancement (BMO) (fold over background); higher = more active; k-Seq, kA / k0A0; sequences stand for … in GGGAAUGGAUCCACAUCUACGAAUUC…UUCACUGCAGACUUGACGAAGCUG
Outline: as §1

biotinyl-Val-oxazolone = assay: self-aminoacylation, catalytic enhancement (BVO) (fold over background); higher = more active; k-Seq, kA / k0A0; sequences stand for … in GGGAAUGGAUCCACAUCUACGAAUUC…UUCACUGCAGACUUGACGAAGCUG
Outline: as §1

biotinyl-Leu-oxazolone = assay: self-aminoacylation, catalytic enhancement (BLO) (fold over background); higher = more active; k-Seq, kA / k0A0; sequences stand for … in GGGAAUGGAUCCACAUCUACGAAUUC…UUCACUGCAGACUUGACGAAGCUG
Outline: as §1

biotinyl-Trp-oxazolone = assay: self-aminoacylation, catalytic enhancement (BWO) (fold over background); higher = more active; k-Seq, kA / k0A0; sequences stand for … in GGGAAUGGAUCCACAUCUACGAAUUC…UUCACUGCAGACUUGACGAAGCUG
Outline: as §1

In the case of “CCACCCUUAAAGCAAUCGGUC [Fam1B.1 aminoacylation ribozyme variant]”, the self-aminoacylation (biotinyl-Phe-oxazolone) is reported as 1.59, the self-aminoacylation (biotinyl-Ile-oxazolone) is reported as 1.23 and the self-aminoacylation (biotinyl-Met-oxazolone) is reported as 0.96. It also gave a self-aminoacylation (biotinyl-Val-oxazolone) of 1.18, a self-aminoacylation (biotinyl-Leu-oxazolone) of 1.05 and a self-aminoacylation (biotinyl-Trp-oxazolone) of 1.4.

Work on “CCACCCUUCAAGCAAUCGCUC [Fam1B.1 aminoacylation ribozyme variant]” yielded a self-aminoacylation (biotinyl-Phe-oxazolone) of 0.977, a self-aminoacylation (biotinyl-Ile-oxazolone) of 1.65 and a self-aminoacylation (biotinyl-Met-oxazolone) of 1.87. It also gave a self-aminoacylation (biotinyl-Val-oxazolone) of 2.28, a self-aminoacylation (biotinyl-Leu-oxazolone) of 2.55 and a self-aminoacylation (biotinyl-Trp-oxazolone) of 2.73.

“CCACCCUUCAAGCAAUCGGUC [Fam1B.1 aminoacylation ribozyme variant]” was tested, and the self-aminoacylation (biotinyl-Phe-oxazolone) was 19.9, the self-aminoacylation (biotinyl-Ile-oxazolone) was 1.05 and the self-aminoacylation (biotinyl-Met-oxazolone) was 0.936. It also gave a self-aminoacylation (biotinyl-Val-oxazolone) of 1.32, a self-aminoacylation (biotinyl-Leu-oxazolone) of 1.16 and a self-aminoacylation (biotinyl-Trp-oxazolone) of 11.3.

In the case of “CCACCCUUCAAGCUAUCGGUC [Fam1B.1 aminoacylation ribozyme variant]”, the self-aminoacylation (biotinyl-Phe-oxazolone) is reported as 0.937, the self-aminoacylation (biotinyl-Ile-oxazolone) is reported as 1.08 and the self-aminoacylation (biotinyl-Met-oxazolone) is reported as 0.845. For the same sequence, the self-aminoacylation (biotinyl-Val-oxazolone) was 1.43, the self-aminoacylation (biotinyl-Leu-oxazolone) was 1.11 and the self-aminoacylation (biotinyl-Trp-oxazolone) was 1.09.

Sequence “CCACCCUUCAAGUAAUCGGUC [Fam1B.1 aminoacylation ribozyme variant]” has a self-aminoacylation (biotinyl-Phe-oxazolone) of 7.55, a self-aminoacylation (biotinyl-Ile-oxazolone) of 1.15 and a self-aminoacylation (biotinyl-Met-oxazolone) of 1.18. It also gave a self-aminoacylation (biotinyl-Val-oxazolone) of 1.25, a self-aminoacylation (biotinyl-Leu-oxazolone) of 1.13 and a self-aminoacylation (biotinyl-Trp-oxazolone) of 7.3.

With “CCACCUUUCAAGCAAUCGGUC [Fam1B.1 aminoacylation ribozyme variant]” the self-aminoacylation (biotinyl-Phe-oxazolone) was 2.62, the self-aminoacylation (biotinyl-Ile-oxazolone) was 1.44 and the self-aminoacylation (biotinyl-Met-oxazolone) was 1.4. The self-aminoacylation (biotinyl-Val-oxazolone) was 1.72, the self-aminoacylation (biotinyl-Leu-oxazolone) was 1.35 and the self-aminoacylation (biotinyl-Trp-oxazolone) was 1.97.

For “CCACGAUUCAAGCAAUCGGUC [Fam1B.1 aminoacylation ribozyme variant]”, the self-aminoacylation (biotinyl-Phe-oxazolone) was 1.89, the self-aminoacylation (biotinyl-Ile-oxazolone) was 1.51 and the self-aminoacylation (biotinyl-Met-oxazolone) was 1.78. It also gave a self-aminoacylation (biotinyl-Val-oxazolone) of 1.47, a self-aminoacylation (biotinyl-Leu-oxazolone) of 1.17 and a self-aminoacylation (biotinyl-Trp-oxazolone) of 1.95.

In the case of “CCACGCUUCAACCAAUCGGUC [Fam1B.1 aminoacylation ribozyme variant]”, the self-aminoacylation (biotinyl-Phe-oxazolone) is reported as 65.2, the self-aminoacylation (biotinyl-Ile-oxazolone) is reported as 1.16 and the self-aminoacylation (biotinyl-Met-oxazolone) is reported as 1.37. It also gave a self-aminoacylation (biotinyl-Val-oxazolone) of 1.55, a self-aminoacylation (biotinyl-Leu-oxazolone) of 1.99 and a self-aminoacylation (biotinyl-Trp-oxazolone) of 40.4.

“CCACGCUUCAAGCAAUCAGUC [Fam1B.1 aminoacylation ribozyme variant]” gave a self-aminoacylation (biotinyl-Phe-oxazolone) of 27.4, a self-aminoacylation (biotinyl-Ile-oxazolone) of 0.745 and a self-aminoacylation (biotinyl-Met-oxazolone) of 0.811. For the same sequence, the self-aminoacylation (biotinyl-Val-oxazolone) was 0.83, the self-aminoacylation (biotinyl-Leu-oxazolone) was 0.886 and the self-aminoacylation (biotinyl-Trp-oxazolone) was 9.22.

“CCACGCUUCAAGCAAUCGGAC [Fam1B.1 aminoacylation ribozyme variant]” showed a self-aminoacylation (biotinyl-Phe-oxazolone) of 1.87, a self-aminoacylation (biotinyl-Ile-oxazolone) of 0.794 and a self-aminoacylation (biotinyl-Met-oxazolone) of 0.64. It also gave a self-aminoacylation (biotinyl-Val-oxazolone) of 0.666, a self-aminoacylation (biotinyl-Leu-oxazolone) of 0.696 and a self-aminoacylation (biotinyl-Trp-oxazolone) of 1.24.

“CCACUAUUCAAGCAAUCGGUC [Fam1B.1 aminoacylation ribozyme variant]” gave a self-aminoacylation (biotinyl-Phe-oxazolone) of 1.75, a self-aminoacylation (biotinyl-Ile-oxazolone) of 1.04 and a self-aminoacylation (biotinyl-Met-oxazolone) of 0.916. For the same sequence, the self-aminoacylation (biotinyl-Val-oxazolone) was 1.09, the self-aminoacylation (biotinyl-Leu-oxazolone) was 0.944 and the self-aminoacylation (biotinyl-Trp-oxazolone) was 1.23.

“CCACUCUUCAAGCAGUCGGUC [Fam1B.1 aminoacylation ribozyme variant]” showed a self-aminoacylation (biotinyl-Phe-oxazolone) of 1.07, a self-aminoacylation (biotinyl-Ile-oxazolone) of 1.04 and a self-aminoacylation (biotinyl-Met-oxazolone) of 1.03. The self-aminoacylation (biotinyl-Val-oxazolone) was 1.1, the self-aminoacylation (biotinyl-Leu-oxazolone) was 1.24 and the self-aminoacylation (biotinyl-Trp-oxazolone) was 1.28.

“CCACUCUUCAGGCAAUCGGUC [Fam1B.1 aminoacylation ribozyme variant]” was tested, and the self-aminoacylation (biotinyl-Phe-oxazolone) was 0.929, the self-aminoacylation (biotinyl-Ile-oxazolone) was 1.31 and the self-aminoacylation (biotinyl-Met-oxazolone) was 1.34. The self-aminoacylation (biotinyl-Val-oxazolone) was 1.49, the self-aminoacylation (biotinyl-Leu-oxazolone) was 1.33 and the self-aminoacylation (biotinyl-Trp-oxazolone) was 1.23.
